# B1: peptide HD2 (from tick evasin EVA4) / CCL22 (biotinylated, synthetic) (parent complex)
# chain 1: EEDDYTAYAPLTCYFT
# chain 2: GPYGANMEDSVCCRDYVRYRLPLRVVKHFYWTSDSCPRPGVVLLTFRDKEICADPRVPWVKMILNKLSQ
# Variants of: B1
row,Variant,enrichment
1,chain 1 EEDDYTACAPLTCYFT [chain 1 Y8C],-9.68 log2 (difference from the parental peptide)
2,chain 1 EEDDYTAYYPLTCYFT [chain 1 A9Y],-6.66 log2 (difference from the parental peptide)
3,chain 1 EEDDYTAYAPLTCFFT [chain 1 Y14F],-0.133 log2 (difference from the parental peptide)
4,chain 1 EEDDYTAYAPLTCMFT [chain 1 Y14M],-1.86 log2 (difference from the parental peptide)
5,chain 1 EEDDYTAYAPLTCWFT [chain 1 Y14W],-0.554 log2 (difference from the parental peptide)
6,chain 1 EEDDYTAYAPLTCSFT [chain 1 Y14S],0.0467 log2 (difference from the parental peptide)
7,chain 1 EEDDYTAYAPLTCPFT [chain 1 Y14P],-3.33 log2 (difference from the parental peptide)
8,chain 1 EEDDYTAYAPLTCRFT [chain 1 Y14R],-0.04 log2 (difference from the parental peptide)
9,chain 1 EEDLYTAYAPLTCYFT [chain 1 D4L],-6.02 log2 (difference from the parental peptide)
10,chain 1 EEDSYTAYAPLTCYFT [chain 1 D4S],-6.14 log2 (difference from the parental peptide)
11,chain 1 EEDDWTAYAPLTCYFT [chain 1 Y5W],1.1 log2 (difference from the parental peptide)
12,chain 1 EEDDATAYAPLTCYFT [chain 1 Y5A],-7.07 log2 (difference from the parental peptide)
13,chain 1 EEDDITAYAPLTCYFT [chain 1 Y5I],-6.63 log2 (difference from the parental peptide)
14,chain 1 EEDDYTAYAYLTCYFT [chain 1 P10Y],-6.98 log2 (difference from the parental peptide)
15,chain 1 EHDDYTAYAPLTCYFT [chain 1 E2H],-3.64 log2 (difference from the parental peptide)
16,chain 1 EADDYTAYAPLTCYFT [chain 1 E2A],-2.53 log2 (difference from the parental peptide)
17,chain 1 EKDDYTAYAPLTCYFT [chain 1 E2K],-5.15 log2 (difference from the parental peptide)
18,chain 1 EEDDYYAYAPLTCYFT [chain 1 T6Y],-1.26 log2 (difference from the parental peptide)
19,chain 1 EEDDYCAYAPLTCYFT [chain 1 T6C],-9.54 log2 (difference from the parental peptide)

row,Variant,enrichment
1,chain 1 EEDDYIAYAPLTCYFT [chain 1 T6I],-6.01 log2 (difference from the parental peptide)
2,chain 1 EEDDYGAYAPLTCYFT [chain 1 T6G],3.08 log2 (difference from the parental peptide)
3,chain 1 EEDDYTAYAPLTCYFQ [chain 1 T16Q],1.11 log2 (difference from the parental peptide)
4,chain 1 EEDDYTAYAPLTCYFG [chain 1 T16G],1.83 log2 (difference from the parental peptide)
5,chain 1 EEDDYTAYAPLTCYTT [chain 1 F15T],0.636 log2 (difference from the parental peptide)
6,chain 1 EEDDYTAYAPLTCYKT [chain 1 F15K],0.708 log2 (difference from the parental peptide)
7,chain 1 EEDDYTAYAPLTCYDT [chain 1 F15D],-4.01 log2 (difference from the parental peptide)
8,chain 1 EEDDYTAYAPLTCYYT [chain 1 F15Y],1.03 log2 (difference from the parental peptide)
9,chain 1 EEDDYTAYAPLTCYIT [chain 1 F15I],-0.829 log2 (difference from the parental peptide)
10,chain 1 EEDDYTGYAPLTCYFT [chain 1 A7G],0.519 log2 (difference from the parental peptide)
11,chain 1 EEDDYTAYAPLTHYFT [chain 1 C13H],-3.89 log2 (difference from the parental peptide)
12,chain 1 EEDDYTAYAPLTPYFT [chain 1 C13P],-6.43 log2 (difference from the parental peptide)
13,chain 1 EEDDYTAYAPLTYYFT [chain 1 C13Y],-2.53 log2 (difference from the parental peptide)
14,chain 1 EEDDYTAYAPLTIYFT [chain 1 C13I],-3.42 log2 (difference from the parental peptide)
15,chain 1 EEDDYTAYAPLTGYFT [chain 1 C13G],-5.34 log2 (difference from the parental peptide)
16,chain 1 EEMDYTAYAPLTCYFT [chain 1 D3M],-3.93 log2 (difference from the parental peptide)
17,chain 1 EESDYTAYAPLTCYFT [chain 1 D3S],-4.38 log2 (difference from the parental peptide)
18,chain 1 EENDYTAYAPLTCYFT [chain 1 D3N],-3.54 log2 (difference from the parental peptide)
19,chain 1 EETDYTAYAPLTCYFT [chain 1 D3T],-3.61 log2 (difference from the parental peptide)

row,Variant,enrichment
1,chain 1 EEVDYTAYAPLTCYFT [chain 1 D3V],-6.53 log2 (difference from the parental peptide)
2,chain 1 EELDYTAYAPLTCYFT [chain 1 D3L],-5 log2 (difference from the parental peptide)
3,chain 1 HEDDYTAYAPLTCYFT [chain 1 E1H],-2.89 log2 (difference from the parental peptide)
4,chain 1 VEDDYTAYAPLTCYFT [chain 1 E1V],-1.89 log2 (difference from the parental peptide)
5,chain 1 TEDDYTAYAPLTCYFT [chain 1 E1T],-2.09 log2 (difference from the parental peptide)
6,chain 1 MEDDYTAYAPLTCYFT [chain 1 E1M],-0.805 log2 (difference from the parental peptide)
7,chain 1 GEDDYTAYAPLTCYFT [chain 1 E1G],-1.59 log2 (difference from the parental peptide)
8,chain 1 QEDDYTAYAPLTCYFT [chain 1 E1Q],-0.35 log2 (difference from the parental peptide)
9,chain 1 AEDDYTAYAPLTCYFT [chain 1 E1A],-1.32 log2 (difference from the parental peptide)
10,chain 1 SEDDYTAYAPLTCYFT [chain 1 E1S],-1.77 log2 (difference from the parental peptide)
11,chain 1 DEDDYTAYAPLTCYFT [chain 1 E1D],2.17 log2 (difference from the parental peptide)
12,chain 1 EEDDYTAYAPLYCYFT [chain 1 T12Y],2.35 log2 (difference from the parental peptide)
13,chain 1 EEDDYTAYAPLICYFT [chain 1 T12I],-0.506 log2 (difference from the parental peptide)
14,chain 1 EEDDYTAYAPLMCYFT [chain 1 T12M],-0.275 log2 (difference from the parental peptide)
15,chain 1 EEDDYTAYAPLFCYFT [chain 1 T12F],-1.02 log2 (difference from the parental peptide)
16,chain 1 EEDDYTAYAPNTCYFT [chain 1 L11N],-4.2 log2 (difference from the parental peptide)
17,chain 1 EEDDYTAYAPHTCYFT [chain 1 L11H],2.09 log2 (difference from the parental peptide)
18,chain 1 EEDDYTAYAPDTCYFT [chain 1 L11D],-5.76 log2 (difference from the parental peptide)

# — paper PMC11969024 (2025)
